{"source": "patent US6096529A", "about": "“Recombinant α-2,3-sialyltransferases and their uses” (priority 1997, dated 2000)", "experiment_in_all_cases": "Determination of kinetic constants with APTS-labelled acceptors", "assay_type_in_all_cases": "biochemical, Neisseria meningitidis", "key": {"[1]": {"tested_on": "O=S(=O)(O)c1cc(NC[C@H](O)[C@@H](O)[C@H](O[C@@H]2O[C@H](CO)[C@H](O[C@H]3O[C@H](CO)[C@H](O)[C@H](O)[C@H]3O)[C@H](O)[C@H]2O)[C@H](O)CO)c2ccc3c(S(=O)(=O)O)cc(S(=O)(=O)O)c4ccc1c2c34", "settings": "other: apparent; APTS-labelled acceptor, CMP-Neu5Ac 200 μM, room temperature", "method": "(§1) Measurement of Sialyltransferase Activity and Survey of Oligosaccharide Acceptors--FCHASE-labelled oligosaccharides were prepared as described above, while the APTS-labelled oligosaccharides were prepared by reductive amination of reducing saccharides according to the method described by Guttman et at. (Anal. Biochem233:234 (1996)) The Gal-β-APTS acceptor was derived from labelling of lactose; the Gal-α-APTS acceptor was derived from labelling of melibiose; the N-acetyllactosamine (LacNAc) acceptor was synthesized by APTS labelling of chitobiose, followed by enzymatic modification with bovine β-Galactosyl transferase to produce the LacNAc moiety-, the Gal-α-1.4-Gal-β acceptor was enzymatically synthesized from β-Gal-APTS with the α-1,4-galactosyltransferase from N. meningitidis. All of the reductive amination products were purified by gel permeation chromatography on Toyopearl HW4OF (Sigma-Aldrich), 1.5 cm×15 cm column, using water as the eluant. It should be mentioned that all of these molecules have the terminal reducing sugar ring opened in the process of labelling. APTS-saccharides were quantitated by measuring the A455, and using an extinction coefficient of 17160 M^-1 cm^-1 . The TMR-labelled oligosaccharides were prepared as described by Zhao et al. (1994) Glycobiology 4:239-242. For the TMR labelled acceptors we used an extinction coefficient of 80,000 M^-1 cm^-1 for quantitation. The sialyltransferase activity was routinely measured using 0.5 mM FCHASE-N-acetyllactosamine as the acceptor and the assay conditions as described above. For measurement of Km, and kcat values, assays were performed with the APTS labelled saccharides at room temperature. Assays were monitored so that for all acceptor concentrations, no more than 10% conversion to product occurred. The ranges of acceptor and donor concentrations were determined empirically, then a range spanning 0.2Km, up to 5Km, was used to obtain the values. Data were examined using the Grafit™3.0 software package (Erithacus Software, London, UK).\n(§2) The reaction mixtures from the FCHASE- and APTS-labelled acceptors were analyzed by capillary electrophoresis performed with a Beckman instruments (Fullerton, Calif.) P/ACE 5510 equipped with a 3 mW Argon-ion laser induced fluorescence detector, λ excitation=488 nm λ emission=520 nm. The Capillary was of bare silica 75 μ X 57 cm, with the detector at 50 cm. The capillary was conditioned before each run by washing with 0.2 M NaOH for 2 min., water for 2 min., and either 20 mM sodium phosphate buffer, pH 7.4 or sodium tetraborate, pH 9.3, 2 min. Samples were introduced by pressure injection for 2-5 seconds, and the separation was performed at 18 kV, 75 μA. Peak integration was performed with the Beckman PACE-Station software (version 1)."}, "[2]": {"tested_on": "O=S(=O)(O)c1cc(NC[C@H](O)[C@@H](O)[C@H](O[C@@H]2O[C@H](CO)[C@H](O)[C@H](O)[C@H]2O)[C@H](O)CO)c2ccc3c(S(=O)(=O)O)cc(S(=O)(=O)O)c4ccc1c2c34", "settings": "other: apparent; APTS-labelled acceptor, CMP-Neu5Ac 200 μM, room temperature", "method": "as §1, §2"}, "[3]": {"tested_on": "CC(=O)N[C@H]1[C@H](O[C@H]2[C@@H](O)[C@@H](CO)O[C@@H](O[C@@H]([C@H](O)[C@@H](O)CNc3cc(S(=O)(=O)O)c4ccc5c(S(=O)(=O)O)cc(S(=O)(=O)O)c6ccc3c4c65)[C@H](O)CO)[C@@H]2O)O[C@H](CO)[C@@H](O)[C@@H]1O[C@@H]1O[C@H](CO)[C@H](O)[C@H](O)[C@H]1O", "settings": "other: apparent; APTS-labelled acceptor, CMP-Neu5Ac 200 μM, room temperature", "method": "as §1, §2"}, "[4]": {"tested_on": "CC(=O)N[C@H]1[C@H](O[C@H]2[C@@H](O)[C@@H](CO)O[C@@H](O[C@@H]([C@H](O)[C@@H](O)CNc3cc(S(=O)(=O)O)c4ccc5c(S(=O)(=O)O)cc(S(=O)(=O)O)c6ccc3c4c65)[C@H](O)CO)[C@@H]2O)O[C@H](CO)[C@@H](O[C@@H]2O[C@H](CO)[C@H](O)[C@H](O)[C@H]2O)[C@@H]1O", "settings": "other: apparent; APTS-labelled acceptor, CMP-Neu5Ac 200 μM, room temperature", "method": "as §1, §2"}, "[5]": {"tested_on": "CC(=O)N[C@H]1[C@H]([C@H](O)[C@H](O)CO)O[C@](OP(=O)(O)OC[C@H]2O[C@@H](n3ccc(N)nc3=O)[C@H](O)[C@@H]2O)(C(=O)O)C[C@@H]1O", "settings": "other: acceptor LacNAc-APTS (0.8 mM) or lacto-N-neotetraose-APTS (0.2 mM)", "method": "as §1, §2"}, "[6]": {"tested_on": "CC(=O)N[C@H]1[C@H](O[C@@H]([C@H](O)[C@H](CNc2cc(S(=O)(=O)O)c3ccc4c(S(=O)(=O)O)cc(S(=O)(=O)O)c5ccc2c3c54)NC(C)=O)[C@H](O)CO)O[C@H](CO)[C@@H](O[C@@H]2O[C@H](CO)[C@H](O)[C@H](O)[C@H]2O)[C@@H]1O", "settings": "other: apparent; APTS-labelled acceptor, CMP-Neu5Ac 200 μM, room temperature", "method": "as §1, §2"}}}
{"substance": "purified recombinant α-2,3-sialyltransferase (Neisseria meningitidis MC58)", "values": [{"measurement": "Km", "setting": "[1]", "result": 139, "unit": "µM"}, {"measurement": "kcat", "setting": "[1]", "result": 0.013, "unit": "s⁻¹"}, {"measurement": "Km", "setting": "[2]", "result": 168, "unit": "µM"}, {"measurement": "kcat", "setting": "[2]", "result": 0.0633, "unit": "s⁻¹"}, {"measurement": "Km", "setting": "[3]", "result": 113, "unit": "µM"}, {"measurement": "kcat", "setting": "[3]", "result": 0.0383, "unit": "s⁻¹"}, {"measurement": "Km", "setting": "[4]", "result": 42, "unit": "µM"}, {"measurement": "Km", "setting": "[5]", "result": 20, "unit": "µM"}, {"measurement": "Km", "setting": "[6]", "result": 67, "unit": "µM"}, {"measurement": "kcat", "setting": "[6]", "result": 0.118, "unit": "s⁻¹"}]}
